# Measured values from article doi:10.1101/2020.09.18.301952.
# Biological target: stabilized soluble SARS-CoV-2 S protein trimer (SARS-CoV-2) (UniProt P0DTC2)
# Assay: cryo-EM structure
substance,measurement,value
monomeric soluble ACE2 (ACE2_(615)) (from UniProt Q9BYF1 18-615) (domain or fragment),stoichiometry N (ACE2 per S trimer),3
